Results as given in patent publication US20240002497A1 (Merck Sharp & Dohme, published 2024).
Positions count from the first letter of the chain named. In names and notes the source's numbering stands. Read-outs that look alike come from different tables or passages of the source. Blank lines part the entries; values can stand above or below the binder they belong to.

How the values were obtained:
huNav1.7α + β1 [1] = target: huNav1.7α + β1 (human); experiment: cell-based or functional assay
huNav1.7α+β1-β2-β3 [2] = target: T1, huNav1.7α+β1-β2-β3 (human, UniProt Q15858 1-1988; Q07699 19-218; O60939 30-215; Q9NY72 23-215); experiment: binding FACS, CHO FlpIn cells
T1 construct: 5N11S variant; also called huNav1.7-beta1-beta2-beta3; huNav1.7α+Navβ1-Navβ2-Navβ3
How it was run: (§1)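 FLAG3-tagged ISVD, 30 min, 4° C, FACS buffer (PBS/10% FBS/NaN₃); 1×10^5 cells/well; detection murine anti-Flag; PI 1 μg/mL live gate; washes between steps.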

rhNav1.7α+β1-β2-β3 = target: T2, rhNav1.7α+β1-β2-β3 (rhesus monkey α subunit with human β …); experiment: binding FACS, CHO FlpIn cells
T2 construct: P2A cleaves it into α, β1, β2, β3; also called rhNav1.7-beta1-beta2-beta3
Protocol: (§2) Binding of the ISVDs to cell-expressed Nav1.7α was detected via murine anti-Flag (Sigma, catalog #F1804). Briefly, cells were resuspended in FACS buffer (PBS, 10% FBS, NaN₃) and transferred to a 96-well V-bottom plate at 1×10^5 cells/well. Purified FLAG3-tagged ISVD was diluted in FACS buffer and added to the cells for 30 minutes at 4° C. […] Prior to the read-out, the samples were resuspended in 1 μg/mL propidium iodide (Sigma, catalog #P4170) to exclude dead cells. Between each step, the cells were centrifuged for 5 minutes at 200 grams and washed with 100 μL/well FACS buffer.
(§3) Crude periplasmic extracts containing ISVDs from phage display selections (as described above) were screened in FACS for binding to huNav1.7α but not to huNav1.5a. […] As used in Table 8, the drawings, and throughout the description, Navβ1, Navβ2, and Navβ3 are human homologs unless specifically identified otherwise.

huNav1.7α+β1 [3] = target: T3, huNav1.7α+β1 (human, UniProt Q15858 1-1988; Q07699 19-218); experiment: binding FACS, HEK293 cells
T3 construct: also called huNav1.7-beta1; HEKa/β1
Protocol: as §2, §3

huNav1.7α [4] = target: T4, huNav1.7α (human, UniProt Q15858 1-1988); experiment: binding FACS, HEKa cells
T4 construct: HEK cells expressing the α subunit alone; also called HEKa; HEK huNav1.7α
How it was run: as §1

huNav1.7α+β1 [5] = target: T3, huNav1.7α+β1; experiment: binding FACS, HEKa/β1 cells
How it was run: as §1

huNav1.5α = target: T5, huNav1.5α (human, UniProt Q14524 1-2016); experiment: binding FACS on stable huNav1.x paralog HEK293T cell lines
T5 construct: also called huNav1.5 (alpha subunit)

huNav1.1α = huNav1.1α (human, UniProt P35498 1-2009); experiment: as above
huNav1.3α = target: T6, huNav1.3α (human, UniProt Q9NY46 1-2000); experiment: as above
T6 construct: also called huNav1.3 (alpha subunit)
T6 sequence (Q9NY46 whole entry): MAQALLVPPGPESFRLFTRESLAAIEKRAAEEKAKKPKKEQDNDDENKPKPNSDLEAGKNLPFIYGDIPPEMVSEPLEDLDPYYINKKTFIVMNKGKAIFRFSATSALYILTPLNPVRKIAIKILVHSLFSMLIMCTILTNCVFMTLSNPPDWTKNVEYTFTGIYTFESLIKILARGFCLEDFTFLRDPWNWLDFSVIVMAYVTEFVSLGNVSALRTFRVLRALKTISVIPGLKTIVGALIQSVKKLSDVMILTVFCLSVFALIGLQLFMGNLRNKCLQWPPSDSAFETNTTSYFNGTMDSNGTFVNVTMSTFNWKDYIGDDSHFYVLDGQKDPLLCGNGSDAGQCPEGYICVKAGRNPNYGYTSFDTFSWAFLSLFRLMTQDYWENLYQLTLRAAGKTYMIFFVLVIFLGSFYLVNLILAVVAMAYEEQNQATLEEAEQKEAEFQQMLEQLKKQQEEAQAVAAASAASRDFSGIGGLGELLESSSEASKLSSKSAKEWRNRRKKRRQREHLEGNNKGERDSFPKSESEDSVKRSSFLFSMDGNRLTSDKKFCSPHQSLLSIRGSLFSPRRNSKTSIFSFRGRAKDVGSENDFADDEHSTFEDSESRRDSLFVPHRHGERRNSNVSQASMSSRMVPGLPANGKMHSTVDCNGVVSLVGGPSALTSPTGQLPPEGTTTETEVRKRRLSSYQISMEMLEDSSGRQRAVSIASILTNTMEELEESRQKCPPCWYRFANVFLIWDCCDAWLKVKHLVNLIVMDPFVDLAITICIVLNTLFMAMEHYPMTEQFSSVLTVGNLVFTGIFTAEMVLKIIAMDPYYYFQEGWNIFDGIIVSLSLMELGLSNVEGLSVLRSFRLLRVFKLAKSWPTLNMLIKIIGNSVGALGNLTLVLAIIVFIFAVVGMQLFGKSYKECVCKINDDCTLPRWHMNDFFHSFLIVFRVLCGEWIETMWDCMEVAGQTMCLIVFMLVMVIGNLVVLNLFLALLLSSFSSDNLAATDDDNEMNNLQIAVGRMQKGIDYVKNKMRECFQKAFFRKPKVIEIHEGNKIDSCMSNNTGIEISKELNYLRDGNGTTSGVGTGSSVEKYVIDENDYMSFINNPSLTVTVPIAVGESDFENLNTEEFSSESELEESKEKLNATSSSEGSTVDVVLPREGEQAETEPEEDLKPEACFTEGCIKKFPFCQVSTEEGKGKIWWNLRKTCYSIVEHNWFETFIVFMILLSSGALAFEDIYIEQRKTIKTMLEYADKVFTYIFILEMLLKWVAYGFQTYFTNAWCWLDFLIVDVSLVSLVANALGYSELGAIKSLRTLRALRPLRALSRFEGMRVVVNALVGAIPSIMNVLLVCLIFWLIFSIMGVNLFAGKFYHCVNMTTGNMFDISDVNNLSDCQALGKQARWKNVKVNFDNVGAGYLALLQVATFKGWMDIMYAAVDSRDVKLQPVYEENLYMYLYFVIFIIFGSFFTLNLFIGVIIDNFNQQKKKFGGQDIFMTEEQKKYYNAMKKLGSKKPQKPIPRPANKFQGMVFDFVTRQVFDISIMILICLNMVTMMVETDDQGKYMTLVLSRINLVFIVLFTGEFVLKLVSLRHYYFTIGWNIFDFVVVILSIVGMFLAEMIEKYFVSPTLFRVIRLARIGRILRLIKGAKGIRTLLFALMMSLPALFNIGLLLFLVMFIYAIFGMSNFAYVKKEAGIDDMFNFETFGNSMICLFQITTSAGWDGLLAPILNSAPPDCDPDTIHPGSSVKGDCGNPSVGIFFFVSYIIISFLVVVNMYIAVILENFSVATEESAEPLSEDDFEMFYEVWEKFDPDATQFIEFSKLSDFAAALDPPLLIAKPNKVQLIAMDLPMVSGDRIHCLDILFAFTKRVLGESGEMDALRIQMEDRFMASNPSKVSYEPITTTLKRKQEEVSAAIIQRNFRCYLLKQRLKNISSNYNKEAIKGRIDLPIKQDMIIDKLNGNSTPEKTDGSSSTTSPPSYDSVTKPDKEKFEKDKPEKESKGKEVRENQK

huNav1.2α = target: T7, huNav1.2α (human, UniProt Q99250 1-2005); experiment: as above
T7 construct: also called huNav1.2 (alpha subunit)

huNav1.6α = target: T8, huNav1.6α (human, UniProt Q9UQD0 1-1980); experiment: as above
T8 construct: also called huNav1.6 (alpha subunit)

huNav1.8α = target: T9, huNav1.8α (human, UniProt Q9Y5Y9 1-1956); experiment: as above
T9 construct: also called huNav1.8 (alpha subunit)
T9 sequence (Q9Y5Y9 whole entry): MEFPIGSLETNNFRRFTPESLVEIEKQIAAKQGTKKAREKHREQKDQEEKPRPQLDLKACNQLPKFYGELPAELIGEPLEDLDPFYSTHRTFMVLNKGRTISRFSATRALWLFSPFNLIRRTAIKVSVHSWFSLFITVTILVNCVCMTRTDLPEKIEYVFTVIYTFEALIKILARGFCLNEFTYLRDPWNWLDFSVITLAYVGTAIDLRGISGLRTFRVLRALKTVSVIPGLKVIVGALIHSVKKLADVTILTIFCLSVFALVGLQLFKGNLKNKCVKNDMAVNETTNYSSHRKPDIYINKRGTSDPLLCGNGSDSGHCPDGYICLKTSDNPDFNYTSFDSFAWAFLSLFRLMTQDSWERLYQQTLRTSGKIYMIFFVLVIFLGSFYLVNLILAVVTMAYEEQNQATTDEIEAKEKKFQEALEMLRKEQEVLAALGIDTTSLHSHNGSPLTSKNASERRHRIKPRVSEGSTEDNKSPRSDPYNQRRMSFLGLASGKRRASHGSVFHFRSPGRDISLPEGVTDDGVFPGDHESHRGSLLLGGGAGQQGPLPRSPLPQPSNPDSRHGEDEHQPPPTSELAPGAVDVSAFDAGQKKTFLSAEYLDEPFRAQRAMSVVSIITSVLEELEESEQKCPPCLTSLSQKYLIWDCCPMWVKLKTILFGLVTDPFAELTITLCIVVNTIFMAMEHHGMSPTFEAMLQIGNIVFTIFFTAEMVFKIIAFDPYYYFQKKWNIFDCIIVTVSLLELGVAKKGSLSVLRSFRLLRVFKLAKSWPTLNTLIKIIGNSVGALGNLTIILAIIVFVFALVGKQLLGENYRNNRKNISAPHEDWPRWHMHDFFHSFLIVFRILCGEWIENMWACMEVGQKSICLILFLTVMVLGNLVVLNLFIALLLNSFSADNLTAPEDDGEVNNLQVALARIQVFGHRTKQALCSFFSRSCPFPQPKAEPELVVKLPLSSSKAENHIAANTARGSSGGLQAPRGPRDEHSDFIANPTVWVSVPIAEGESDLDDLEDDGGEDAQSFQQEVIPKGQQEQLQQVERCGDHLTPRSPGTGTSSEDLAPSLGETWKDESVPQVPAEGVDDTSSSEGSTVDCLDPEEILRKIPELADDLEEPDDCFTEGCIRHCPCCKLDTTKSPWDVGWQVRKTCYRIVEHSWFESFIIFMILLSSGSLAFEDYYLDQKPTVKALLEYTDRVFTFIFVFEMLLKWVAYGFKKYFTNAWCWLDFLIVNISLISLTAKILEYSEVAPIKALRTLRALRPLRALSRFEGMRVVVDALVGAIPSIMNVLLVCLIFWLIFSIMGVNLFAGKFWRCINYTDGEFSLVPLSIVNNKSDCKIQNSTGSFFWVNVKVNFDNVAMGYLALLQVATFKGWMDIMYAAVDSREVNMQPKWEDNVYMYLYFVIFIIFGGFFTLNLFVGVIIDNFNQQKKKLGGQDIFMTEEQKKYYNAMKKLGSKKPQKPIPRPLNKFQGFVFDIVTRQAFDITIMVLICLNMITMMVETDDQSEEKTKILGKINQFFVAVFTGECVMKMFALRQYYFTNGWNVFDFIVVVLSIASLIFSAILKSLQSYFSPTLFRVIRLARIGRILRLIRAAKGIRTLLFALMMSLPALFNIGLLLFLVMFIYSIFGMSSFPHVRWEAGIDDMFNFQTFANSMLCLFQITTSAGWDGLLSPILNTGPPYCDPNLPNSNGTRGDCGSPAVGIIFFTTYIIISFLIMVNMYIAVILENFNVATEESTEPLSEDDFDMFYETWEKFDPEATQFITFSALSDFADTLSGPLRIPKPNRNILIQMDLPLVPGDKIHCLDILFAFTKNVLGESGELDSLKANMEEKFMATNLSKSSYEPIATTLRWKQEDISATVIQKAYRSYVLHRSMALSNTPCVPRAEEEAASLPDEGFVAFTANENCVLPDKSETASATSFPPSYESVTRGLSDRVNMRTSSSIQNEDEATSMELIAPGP

huNav1.4α = target: T10, huNav1.4α (human, UniProt P35499 1-1836); experiment: as above
T10 construct: also called huNav1.4 (alpha subunit)

huNav1.7α+β1-β2-β3 [6] = target: T1, huNav1.7α+β1-β2-β3; experiment: binding FACS, HEK FlpIn cells
Protocol: as §2, §3

huNav1.5α+β1-β2-β3 = target: T11, huNav1.5α+β1-β2-β3 (human, UniProt Q14524 1-2016; A5A6L6 19-218; O60939 30-215; Q2KI11 23-215); experiment: binding FACS, HEK FlpIn cells
T11 construct: in the cell P2A cleaves it into α, β1, β2, β3; also called huNav1.5-beta1-beta2-beta3
Protocol: as §2, §3

[7] = target: T12, huNav157chimera14+β1-β2-β3 (human, UniProt Q07699 19-218; O60939 30-215; Q9NY72 23-215); experiment: binding FACS, HEK FlpIn cells
T12 construct: HEK FlpIn line; also called huNav157 chimera 14-beta1-beta2-beta3; Nav157ch14-β1-β2-β3
Protocol: as §2, §3

huNav1.7α [8] = target: T4, huNav1.7α; experiment: binding FACS, HEKa cells; remark: listed apart in the source
huNav1.7α+β1-β2-β3 [9] = target: T1, huNav1.7α+β1-β2-β3; experiment: binding FACS, CHO FlpIn cells; remark: listed apart in the source
Protocol: as §2, §3

huNav1.7α+β1 [10] = target: T3, huNav1.7α+β1; experiment: binding FACS, HEKa/β1 cells; remark: listed apart in the source
huNav1.7α [11] = target: T13, huNav1.7α (human, UniProt Q15858 1-1988); experiment: binding FACS, HEK
T13 construct: HEK cells expressing the α subunit without β subunits; also called huNav1.7 (alpha-subunit); Human Nav1.7α

huNav1.7α + β1 [12] = target: T14, huNav1.7α + β1 (human); experiment: binding FACS, HEK
T14 construct: HEK293 cells; also called huNav1.7-beta1; huNav1.7-β1

huNav1.7α + β1 [13] = target: T14, huNav1.7α + β1; experiment: cell-based or functional assay; remark: listed apart in the source
rhNav1.7α + β1-β2-β3 [14] = target: rhNav1.7α + β1-β2-β3 (rhesus monkey); experiment: cell-based or functional assay
huNav1.7α + β1 [15] = target: T14, huNav1.7α + β1; experiment: cell-based or functional assay; remark: listed apart in the source
rhNav1.7α + β1-β2-β3 [16] = target: rhNav1.7α + β1-β2-β3 (rhesus monkey); experiment: cell-based or functional assay; remark: listed apart in the source

B2: F0103387G05 (parental)-FLAG-HIS6 (VHH)
VHH: EVQLVESGGGLVQAGGSLRLSCDASGRILRIGYMRWHRQGAGKQREFVARITDDSATDYADSVKGRFTISRDNAKNTVYLQMNNLNPEDTAVYYCEALVTASVRGGSIHSGTYWGRGTLVTVSS
EC50 (huNav1.7α+β1-β2-β3 [2]): 4.7 nM
binding result (rhNav1.7α+β1-β2-β3): no binding
EC50 (huNav1.7α+β1 [3]): 1.2 nM
EC50 (huNav1.7α [4]): 2.7 nM
EC50 (huNav1.7α+β1 [5]): 1.7 nM
binding result (huNav1.5α): no binding
binding result (huNav1.1α): no binding
binding result (huNav1.3α): no binding
binding result (huNav1.2α): no binding
binding result (huNav1.6α): no binding
binding result (huNav1.8α): no binding
binding result (huNav1.4α): no binding
EC50 (huNav1.7α+β1-β2-β3 [6]): 3.1 nM
binding result (huNav1.5α+β1-β2-β3): no binding
EC50 [7]: 3.6 nM

B3: F0103362B08 (parental)-FLAG-HIS6 (VHH)
VHH: EVQLVESGGGLVQAGGSLRLSCAASVRPFSTSAMGWFRQAPEKEREAVAGILWNGIVTYYADSVKGRFTISRDNAKNEVYLQMNKLKPEDTAVYYCALDRDYGGRSFSAYEYEYWGQGTLVTVSS
Qpatch IC50 (huNav1.7α + β1 [1]): 1 nM

B4: F0103275B05 (parental)-FLAG-HIS6 (VHH)
VHH: EVQLVESGGGLVQPGGSLRLSCAASGSIFNINSMAWYRRAPGKQRELVASSTNGGSTNYADSVKGRFTISRDNAKRVYLQMNSLTPEDTAVYYCNALLQPSIYDISRTYWGQGTLVTVSS
notes: also called F01033275B05
EC50 (huNav1.7α [8]): 10 nM
EC50 (huNav1.7α+β1-β2-β3 [9]): 27 nM
EC50 (huNav1.7α+β1 [3]): 28 nM
EC50 (huNav1.7α+β1 [10]): 48 nM
binding result (huNav1.5α): no binding
binding result (huNav1.1α): no binding
binding result (huNav1.3α): no binding
binding result (huNav1.2α): no binding
binding result (huNav1.6α): no binding
binding result (huNav1.8α): no binding
binding result (huNav1.4α): no binding
EC50 (huNav1.7α+β1-β2-β3 [6]): 37 nM
binding result (huNav1.5α+β1-β2-β3): no binding
EC50 [7]: 39 nM

B6: 66ASP (Fc fusion)
chain: B4 VHH with S27P, I28V, S50Y, N53P, G55W, S56D, T57W, N95R, A96W
notes: also called F010300659-5GS-Fc; not shown: 5GS linker; Fc moiety
EC50 (huNav1.7α [11]): 61 nM
EC50 (huNav1.7α + β1 [12]): 42 nM
Qpatch IC50 [M], HEK cells (huNav1.7α + β1 [15]): 9.2e-08 M
Qpatch IC50 [M], HEK cells (rhNav1.7α + β1-β2-β3 [16]): 5.2e-08 M

The remaining lines, values ahead:

Qpatch IC50 (huNav1.7α + β1 [1]): 38 nM
B1: F0103454D07 (parental)-FLAG-HIS6 (VHH)
VHH: EVQLVESGGGLVQPGGSLRLSCVASGGIININYIAWYRQTPGKQRDLVARISSDDTIKYGDSVKGRFAMSRDKVKNMVHLQMNSLTTEDTGVYVCSALITPWTGDTRTYWGRGTLVTVSS

EC50 (huNav1.7α [11]): 5.4 nM
EC50 (huNav1.7α + β1 [12]): 11 nM
Qpatch IC50 (huNav1.7α + β1 [13]): 85 nM
Qpatch IC50 (rhNav1.7α + β1-β2-β3 [14]): 199 nM
Qpatch IC50 [M], HEK cells (huNav1.7α + β1 [15]): 8.5e-08 M
Qpatch IC50 [M], HEK cells (rhNav1.7α + β1-β2-β3 [16]): 1.8e-07 M
B5: F010300659 (VHH)
VHH: B4 VHH with S27P, I28V, S50Y, N53P, G55W, S56D, T57W, N95R, A96W
notes: also called F0103275B05(S27P, I28V, S50Y, N53P, G55W, S56D, T57W, N93R, A94W)-FLAG3 + HIS6
